Assay results taken from US6972319B1, “Pituitary adenylate cyclase activating peptide (PACAP)receptor 3 (R3) agonists and their pharmacological methods of use” (priority 1999, dated 2005).

B1: R3P81 (peptide)
peptide: HSDAVFTDNYTRLRKQVAVKKYLQSIKKK
B2: R3P82 (peptide)
peptide: HSDAVFTDNYTRLRKQVAVKKYLQSIKNKRY
B3: R3P83 (peptide)
peptide: HSDAVFTDNYTRLRKQVAAKKYLQSILKKRY
B4: R3P84 (peptide)
peptide: HSDAVFTDNYTRLRKQVAAKKYLQSILKKR
B5: R3P85 (peptide)
peptide: HSDAVFTDNYTRLRKQVAAKKYLQSILKK
B6: R3P86 (peptide)
peptide: HSDAVFTDNYTRLRKQVAAKKYLQSIKNK
B7: R3P87 (peptide)
peptide: HSDAVFTDNYTRLRKQVAVKKYLQSILKKRY
B8: R3P88 (peptide)
peptide: HSDAVFTDNYTRLRKQVAVKKYLQSILKKR
B9: R3P89 (peptide)
peptide: HSDAVFTDNYTRLRKQVAVKKYLQSILKK
B10: R3P92 (peptide)
peptide: HSDAVFTDNYTRLRKQVAAKKYLQSILNKRY
B11: R3P9 (peptide)
peptide: HSDAVFTDNYTRLRKQMAVKKYLNSIKKGGT
B12: R3P93 (peptide)
peptide: HSDAVFTDNYTRLRKQVAAKKYLQSILNKR
B13: R3P94 (peptide)
peptide: HSDAVFTDNYTRLRKQVAAKKYLQSILNK
B14: R3P99 (peptide)
peptide: HSDAVFTDNYTRLRKQMAEKKYLNSIKNKR
B15: R3P100 (peptide)
peptide: HSDAVFTDNYTRLRKQMAFKKYLNSIKNKR
B16: R3P101 (peptide)
peptide: HSDAVFTDNYTRLRKQMAGKKYLNSIKNKR
B17: R3P102 (peptide)
peptide: HSDAVFTDNYTRLRKQMAHKKYLNSIKNKR
B18: R3P103 (peptide)
peptide: HSDAVFTDNYTRLRKQMAIKKYLNSIKNKR
B19: R3P104 (peptide)
peptide: HSDAVFTDNYTRLRKQMAKKKYLNSIKNKR
B20: R3P105 (peptide)
peptide: HSDAVFTDNYTRLRKQMALKKYLNSIKNKR
B21: R3P10 (peptide)
peptide: HSDAVFTENYTKLRKQLAAKKYLNDLLNGGT
B22: R3P107 (peptide)
peptide: HSDAVFTDNYTRLRKQMANKKYLNSIKNKR
B23: R3P108 (peptide)
peptide: HSDAVFTDNYTRLRKQMAPKKYLNSIKNKR
B24: R3P109 (peptide)
peptide: HSDAVFTDNYTRLRKQMAQKKYLNSIKNKR
B25: R3P110 (peptide)
peptide: HSDAVFTDNYTRLRKQMARKKYLNSIKNKR
B26: R3P111 (peptide)
peptide: HSDAVFTDNYTRLRKQMASKKYLNSIKNKR
B27: R3P113 (peptide)
peptide: HSDAVFTDNYTRLRKQMAVKKYLNSIKNKR
B28: R3P114 (peptide)
peptide: HSDAVFTDNYTRLRKQMAWKKYLNSIKNKR
B29: R3P115 (peptide)
peptide: HSDAVFTDNYTRLRKQMAYKKYLNSIKNKR
B30: R3P11 (peptide)
peptide: HSDAVFTDNYTKLRKQLAAKKYLNDILNGGT
B31: R3P116 (peptide)
peptide: HSDAVFTDNYTRLRKQMAAKKYLNSIANKR
B32: R3P118 (peptide)
peptide: HSDAVFTDNYTRLRKQMAAKKYLNSIDNKR
B33: R3P119 (peptide)
peptide: HSDAVFTDNYTRLRKQMAAKKYLNSIENKR
B34: R3P120 (peptide)
peptide: HSDAVFTDNYTRLRKQMAAKKYLNSIFNKR
B35: R3P121 (peptide)
peptide: HSDAVFTDNYTRLRKQMAAKKYLNSIGNKR
B36: R3P122 (peptide)
peptide: HSDAVFTDNYTRLRKQMAAKKYLNSIHNKR
B37: R3P124 (peptide)
peptide: HSDAVFTDNYTRLRKQMAAKKYLNSIMNKR
B38: R3P125 (peptide)
peptide: HSDAVFTDNYTRLRKQMAAKKYLNSINNKR
B39: R3P126 (peptide)
peptide: HSDAVFTDNYTRLRKQMAAKKYLNSIPNKR

What follows are binders tested against T1, PACAP-R3 (human, UniProt P41587 24-438) (assay: cell-based or functional assay).
T1 sequence (looked up): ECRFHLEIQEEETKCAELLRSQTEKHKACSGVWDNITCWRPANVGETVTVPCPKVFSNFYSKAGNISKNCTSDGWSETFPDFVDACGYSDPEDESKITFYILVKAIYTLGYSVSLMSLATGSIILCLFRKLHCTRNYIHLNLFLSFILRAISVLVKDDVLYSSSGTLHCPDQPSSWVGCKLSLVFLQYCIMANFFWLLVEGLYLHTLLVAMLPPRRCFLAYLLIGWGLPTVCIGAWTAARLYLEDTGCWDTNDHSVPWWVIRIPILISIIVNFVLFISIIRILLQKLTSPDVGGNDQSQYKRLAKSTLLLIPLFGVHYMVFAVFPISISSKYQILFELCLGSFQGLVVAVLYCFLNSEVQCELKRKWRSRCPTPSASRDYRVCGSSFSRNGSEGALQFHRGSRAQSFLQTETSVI
B1 was tested, and the “R3 EC50” value was 0.5 nM and the “R3 Selectivity” value was 100.
B2 was tested, and the “R3 EC50” value was 0.4 nM and the “R3 Selectivity” value was 23.
For B3, the “R3 EC50” value was 0.08 nM and the “R3 Selectivity” value was 60.
For B4, the “R3 EC50” value was 0.06 nM and the “R3 Selectivity” value was 40.
B5 was tested, and the “R3 EC50” value was 0.18 nM and the “R3 Selectivity” value was 30.
In the case of B6, the “R3 EC50” value is reported as 0.8 nM and the “R3 Selectivity” value is reported as 110.
In the case of B7, the “R3 EC50” value is reported as 0.2 nM and the “R3 Selectivity” value is reported as 3.
In the case of B8, the “R3 EC50” value is reported as 0.08 nM and the “R3 Selectivity” value is reported as 12.
With B9 the “R3 EC50” value was 0.06 nM and the “R3 Selectivity” value was 15.
For B10, the “R3 EC50” value was 0.02 nM and the “R3 Selectivity” value was 100.
For B11, the “R3 EC50” value was 2 nM and the “R3 Selectivity” value was 20.
For B12, the “R3 EC50” value was 0.14 nM and the “R3 Selectivity” value was 40.
With B13 the “R3 EC50” value was 0.09 nM and the “R3 Selectivity” value was 100.
In the case of B14, the “R3 EC50” value is reported as 1 nM and the “R3 Selectivity” value is reported as 40.
With B15 the “R3 EC50” value was 0.3 nM and the “R3 Selectivity” value was 30.
In the case of B16, the “R3 EC50” value is reported as 1 nM and the “R3 Selectivity” value is reported as 400.
With B17 the “R3 EC50” value was 60 nM and the “R3 Selectivity” value was 5.
In the case of B18, the “R3 EC50” value is reported as 0.05 nM and the “R3 Selectivity” value is reported as 8.
B19 was tested, and the “R3 EC50” value was 0.2 nM and the “R3 Selectivity” value was 500.
In the case of B20, the “R3 EC50” value is reported as 0.3 nM and the “R3 Selectivity” value is reported as 3.
B21 was tested, and the “R3 EC50” value was 11 nM and the “R3 Selectivity” value was 0.3.
For B22, the “R3 EC50” value was 200 nM.
In the case of B23, the “R3 EC50” value is reported as 300 nM and the “R3 Selectivity” value is reported as 3.
B24 was tested, and the “R3 EC50” value was 10 nM and the “R3 Selectivity” value was 100.
For B25, the “R3 EC50” value was 0.5 nM and the “R3 Selectivity” value was 200.
With B26 the “R3 EC50” value was 3 nM and the “R3 Selectivity” value was 300.
In the case of B27, the “R3 EC50” value is reported as 0.3 nM.
With B28 the “R3 EC50” value was 2 nM and the “R3 Selectivity” value was 10.
For B29, the “R3 EC50” value was 6 nM and the “R3 Selectivity” value was 50.
In the case of B30, the “R3 EC50” value is reported as 3 nM and the “R3 Selectivity” value is reported as 3.
For B31, the “R3 EC50” value was 1 nM and the “R3 Selectivity” value was 20.
In the case of B32, the “R3 EC50” value is reported as 0.5 nM and the “R3 Selectivity” value is reported as 30.
In the case of B33, the “R3 EC50” value is reported as 0.5 nM and the “R3 Selectivity” value is reported as 30.
In the case of B34, the “R3 EC50” value is reported as 0.2 nM and the “R3 Selectivity” value is reported as 50.
In the case of B35, the “R3 EC50” value is reported as 1 nM and the “R3 Selectivity” value is reported as 50.
B36 was tested, and the “R3 EC50” value was 0.2 nM and the “R3 Selectivity” value was 50.
In the case of B37, the “R3 EC50” value is reported as 0.2 nM.
In the case of B38, the “R3 EC50” value is reported as 2 nM and the “R3 Selectivity” value is reported as 30.
In the case of B39, the “R3 EC50” value is reported as 1 nM and the “R3 Selectivity” value is reported as 200.
